Reference: US20230227511A1, “THERAPEUTIC OR […] FOR INFECTIOUS DISEASE” (NIPPON MEDICAL SCHOOL FOUNDATION, priority 2020, published 2023)

Columns and labels:
[1] = system: vascular endothelial cells; details: Patent Document 1; cited from earlier work
sepsis mouse models = experiment: Administration of the 50-amino acid peptide (PTX3N50) to sepsis mouse models; type: in vivo; details: peptide not fused to Fc

## PTX3N50: 50-amino acid peptide on the N-terminal side of PTX3, not fused to Fc (ENSDDYDLMYVNLDNEIDNGLHPTEDPTPCACGQEHSEWDKLFIMLENSQ; UniProt P26022 18-67, looked up, fragment)
[1]
  action to suppress histone cytotoxicity against vascular endothelial cells: has an action to suppress histone cytotoxicity
Sepsis mouse models
  survival percentage of the sepsis mouse models: could not improve the survival percentage
